Experiments:
[1] = target: T1, His-tagged ALPL (recombinant, soluble; SPR, BLI and ELISA of Examples 8 and 13) (UniProt P05186 18-502); assay: SPR (Biacore 8K), TTM-002 immobilized on CM5 chip at approximately 6300RU, His-tagged ALPL as analyte; value in the text differs from Table 41
T1 construct: also called ALPL receptor; alkaline phosphatase tissue-nonspecific isozyme
T1 sequence: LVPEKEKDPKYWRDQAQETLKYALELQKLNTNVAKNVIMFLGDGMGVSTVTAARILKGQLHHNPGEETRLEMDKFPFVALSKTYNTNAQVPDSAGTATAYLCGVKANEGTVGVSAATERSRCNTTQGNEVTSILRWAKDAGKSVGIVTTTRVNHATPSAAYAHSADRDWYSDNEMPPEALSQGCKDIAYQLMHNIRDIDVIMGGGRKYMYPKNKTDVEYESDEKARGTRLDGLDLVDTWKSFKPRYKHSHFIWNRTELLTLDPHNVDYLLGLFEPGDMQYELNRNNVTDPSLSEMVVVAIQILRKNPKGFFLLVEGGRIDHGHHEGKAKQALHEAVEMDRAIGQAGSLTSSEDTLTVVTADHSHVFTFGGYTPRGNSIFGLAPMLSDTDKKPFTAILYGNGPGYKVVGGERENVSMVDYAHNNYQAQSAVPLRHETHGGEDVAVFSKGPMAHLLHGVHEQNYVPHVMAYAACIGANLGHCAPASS

[2] = target: T2, human ALPL expressed on cells (alkaline phosphatase tissue-nonspecific isozyme, NM_000478.4) (human, UniProt P05186 18-501); assay: cell-based or functional assay
T2 sequence: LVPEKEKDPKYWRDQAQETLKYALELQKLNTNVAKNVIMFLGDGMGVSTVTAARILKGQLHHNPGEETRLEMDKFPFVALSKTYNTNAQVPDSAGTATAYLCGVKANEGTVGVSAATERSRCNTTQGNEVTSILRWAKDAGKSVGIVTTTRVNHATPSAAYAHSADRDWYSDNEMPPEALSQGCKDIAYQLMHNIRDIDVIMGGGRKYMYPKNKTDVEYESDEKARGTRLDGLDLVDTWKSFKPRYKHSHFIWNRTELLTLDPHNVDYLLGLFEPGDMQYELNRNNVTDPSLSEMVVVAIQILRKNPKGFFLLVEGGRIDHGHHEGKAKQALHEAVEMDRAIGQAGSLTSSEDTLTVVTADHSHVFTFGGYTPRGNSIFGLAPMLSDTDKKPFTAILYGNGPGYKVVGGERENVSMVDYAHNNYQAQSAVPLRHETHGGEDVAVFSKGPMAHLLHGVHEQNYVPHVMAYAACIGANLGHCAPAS

B1: TTM-002 capsid variant (AAV particle comprising the TTM-002 AAV9 capsid variant) (other)
chain 1: MAADGYLPDWLEDNLSEGIREWWALKPGAPQPKANQQHQDNARGLVLPGYKYLGPGNGLDKGEPVNAADAAALEHDKAYDQQLKAGDNPYLKYNHADAEFQERLKEDTSFGGNLGRAVFQAKKRLLEPLGLVEEAAKTAPGKKRPVEQSPQEPDSSAGIGKSGAQPAKKRLNFGQTGDTESVPDPQPIGEPPAAPSGVGSLTMASGGGAPVADNNEGADGVGSSSGNWHCDSQWLGDRVITTSTRTWALPTYNNHLYKQISNSTSGGSSNDNAYFGYSTPWGYFDFNRFHCHFSPRDWQRLINNNWGFRPKRLNFKLFNIQVKEVTDNNGVKTIANNLTSTVQVFTDSDYQLPYVLGSAHEGCLPPFPADVFMIPQYGYLTLNDGSQAVGRSSFYCLEYFPSQMLRTGNNFQFSYEFENVPFHSSYAHSQSLDRLMNPLIDQYLYYLSKTINGHDSPHKSGQNQQTLKFSVAGPSNMAVQGRNYIPGPSYRQQRVSTTVTQNNNSEFAWPGASSWALNGRNSLMNPGPAMASHKEGEDRFFPLSGSLIFGKQGTGRDNVDADKVMITNEEEIKTTNPVATESYGQVATNHQSAQAQAQTGWVQNQGILPGMVWQDRDVYLQGPIWAKIPHTDGNFHPSPLMGGFGMKHPPPQILIKNTPVPADPPTAFNKDKLNSFITQYSTGQVSVEIEWELQKENSKRWNPEIQYTSNYYKSNNVEFAVNTEGVYSEPRPIGTRYLTRNL
chain 2: TAPGKKRPVEQSPQEPDSSAGIGKSGAQPAKKRLNFGQTGDTESVPDPQPIGEPPAAPSGVGSLTMASGGGAPVADNNEGADGVGSSSGNWHCDSQWLGDRVITTSTRTWALPTYNNHLYKQISNSTSGGSSNDNAYFGYSTPWGYFDFNRFHCHFSPRDWQRLINNNWGFRPKRLNFKLFNIQVKEVTDNNGVKTIANNLTSTVQVFTDSDYQLPYVLGSAHEGCLPPFPADVFMIPQYGYLTLNDGSQAVGRSSFYCLEYFPSQMLRTGNNFQFSYEFENVPFHSSYAHSQSLDRLMNPLIDQYLYYLSKTINGHDSPHKSGQNQQTLKFSVAGPSNMAVQGRNYIPGPSYRQQRVSTTVTQNNNSEFAWPGASSWALNGRNSLMNPGPAMASHKEGEDRFFPLSGSLIFGKQGTGRDNVDADKVMITNEEEIKTTNPVATESYGQVATNHQSAQAQAQTGWVQNQGILPGMVWQDRDVYLQGPIWAKIPHTDGNFHPSPLMGGFGMKHPPPQILIKNTPVPADPPTAFNKDKLNSFITQYSTGQVSVEIEWELQKENSKRWNPEIQYTSNYYKSNNVEFAVNTEGVYSEPRPIGTRYLTRNL
chain 3: MASGGGAPVADNNEGADGVGSSSGNWHCDSQWLGDRVITTSTRTWALPTYNNHLYKQISNSTSGGSSNDNAYFGYSTPWGYFDFNRFHCHFSPRDWQRLINNNWGFRPKRLNFKLFNIQVKEVTDNNGVKTIANNLTSTVQVFTDSDYQLPYVLGSAHEGCLPPFPADVFMIPQYGYLTLNDGSQAVGRSSFYCLEYFPSQMLRTGNNFQFSYEFENVPFHSSYAHSQSLDRLMNPLIDQYLYYLSKTINGHDSPHKSGQNQQTLKFSVAGPSNMAVQGRNYIPGPSYRQQRVSTTVTQNNNSEFAWPGASSWALNGRNSLMNPGPAMASHKEGEDRFFPLSGSLIFGKQGTGRDNVDADKVMITNEEEIKTTNPVATESYGQVATNHQSAQAQAQTGWVQNQGILPGMVWQDRDVYLQGPIWAKIPHTDGNFHPSPLMGGFGMKHPPPQILIKNTPVPADPPTAFNKDKLNSFITQYSTGQVSVEIEWELQKENSKRWNPEIQYTSNYYKSNNVEFAVNTEGVYSEPRPIGTRYLTRNL
How did the kon [1] turn out when B1 was run?
The kon was 32000 M⁻¹ s⁻¹.

What about the “fold change in luciferase activity relative to the pCMV6 control cells (Human ALPL)” value [2] of the same binder?
Its value is 60.3 fold.
